{
  "source": "patent US6610523B1",
  "about": "“Cytokine-, stress-, and oncoprotein-activated human protein kinase kinases” (University of Massachusetts, priority 1995, dated 2003)",
  "target": "T1, p38 MAP kinase (Homo sapiens, UniProt Q16539)",
  "T1 construct": "a PCR fragment containing the coding region of the p38 MAP kinase cDNA; GST (N); made in house; host or cells: bacteria",
  "T1 sequence (Q16539 whole entry, the tested form may be a part)": "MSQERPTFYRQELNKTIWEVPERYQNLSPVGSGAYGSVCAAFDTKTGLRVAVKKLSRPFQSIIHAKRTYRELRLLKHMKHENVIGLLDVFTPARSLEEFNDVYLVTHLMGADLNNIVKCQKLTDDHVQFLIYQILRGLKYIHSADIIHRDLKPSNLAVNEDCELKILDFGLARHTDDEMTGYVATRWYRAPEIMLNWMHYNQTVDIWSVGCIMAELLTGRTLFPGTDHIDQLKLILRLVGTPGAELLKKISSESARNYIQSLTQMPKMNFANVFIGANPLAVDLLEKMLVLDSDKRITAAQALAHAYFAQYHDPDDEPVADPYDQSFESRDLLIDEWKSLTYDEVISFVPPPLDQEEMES",
  "assay": "Substrate phosphorylation by bacterially-expressed p38 MAP kinase, PhosphorImager quantitation",
  "assay_type": "biochemical",
  "details": "30 minutes reaction; ATF2 = 1.0",
  "protocol": "Substrate phosphorylation by p38 MAP kinase was examined by incubation of bacterially-expressed p38 MAP kinase with IKB, cMyc, EGF-R, cytoplasmic phospholipase A2 (cPLA2), c-Jun, and mutated ATF2 (Thr^69,71) and ATP [γ-^32P] (Raingeaud et al. (1995) J. Biol. Chem 270:7420, herein specifically incorporated by reference). GST-IKB was provided by Dr D. Baltimore (Massachusetts Institute of Technology). GST-cMyc (Alvarez et al. (1991) J. Biol. Chem. 266:15277), GST-EGF-R (residues 647-688) (Koland et al. (1990) Biochem. Biophys. Res. Commun. 166:90), and GST-c-Jun (Dérijard et al. (1994) supra) have been described. The phosphorylation reaction was terminated after 30 minutes by addition of Laemmli sample buffer. The phosphorylated proteins were resolved by SDS-PAGE and detected by autoradiography. The rate phosphorylation of the substrate proteins was quantitated by PhosphorImager (Molecular Dynamics Inc.) analysis. The relative phosphorylation of ATF2, MBP, EGF-R, and IKB was 1.0, 0.23, 0.04, and 0.001, respectively.",
  "data": [
    {"molecule": "ATF2: Activating Transcription Factor-2, substrate protein of p38 (protein) MKFKLHVNSARQYKDLWNMSDDKPFLCTAPGCGQRFTNEDHLAVHKHKHEMTLKFGPARNDSVIVADQTPTPTRFLKNCEEVGLFNELASPFENEFKKASEDDIKKMPL", "values": [
      {"measurement": "relative phosphorylation of substrate protein by p38 MAP kinase", "value": 1.0}
    ]}
  ]
}
